# Numbering of substitutions follows the chain as printed. Names and notes keep the numbering of the source.
# T1: human FcγRIIb receptor protein (R&D Systems) (human, UniProt P31994 46-217)
# T1 construct: Analyte injected over antibodies captured on a protein A/G chip (Biacore); also called CD32b
# T1 sequence (looked up): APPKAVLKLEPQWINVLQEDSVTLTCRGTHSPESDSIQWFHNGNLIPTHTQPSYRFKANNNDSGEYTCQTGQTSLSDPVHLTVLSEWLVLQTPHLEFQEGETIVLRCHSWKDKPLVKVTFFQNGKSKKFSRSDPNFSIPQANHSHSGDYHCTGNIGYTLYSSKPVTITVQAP
# B1: L235F/H268D/L328Y (antibody, human IgG1, kappa)
# heavy: EVQLVESGGGLVKPGGSLKLSCAASGYTFTSYVMHWVRQAPGKGLEWIGYINPYNDGTKYNEKFQGRVTISSDKSISTAYMELSSLRSEDTAMYYCARGTYYYGTRVFDYWGQGTLVTVSSASTKGPSVFPLAPSSKSTSGGTAALGCLVKDYFPEPVTVSWNSGALTSGVHTFPAVLQSSGLYSLSSVVTVPSSSLGTQTYICNVNHKPSNTKVDKKVEPKSCDKTHTCPPCPAPELFGGPSVFLFPPKPKDTLMISRTPEVTCVVVDVSDEDPEVKFNWYVDGVEVHNAKTKPREEQYNSTYRVVSVLTVLHQDWLNGKEYKCKVSNKAYPAPIEKTISKAKGQPREPQVYTLPPSREEMTKNQVSLTCLVKGFYPSDIAVEWESNGQPENNYKTTPPVLDSDGSFFLYSKLTVDKSRWQQGNVFSCSVMHEALHNHYTQKSLSLSPGK
# light: DIVMTQSPATLSLSPGERATLSCRSSKSLQNVNGNTYLYWFQQKPGQSPQLLIYRMSNLNSGVPDRFSGSGSGTEFTLTISSLEPEDFAVYYCMQHLEYPITFGAGTKLEIKRTVAAPSVFIFPPSDEQLKSGTASVVCLLNNFYPREAKVQWKVDNALQSGNSQESVTEQDSKDSTYSLSSTLTLSKADYEKHKVYACEVTHQGLSSPVTKSFNRGEC
# notes: HuAM4G7 IgG1 Fc variant
# B2: S239D/H268D (antibody, human IgG1, kappa)
# heavy: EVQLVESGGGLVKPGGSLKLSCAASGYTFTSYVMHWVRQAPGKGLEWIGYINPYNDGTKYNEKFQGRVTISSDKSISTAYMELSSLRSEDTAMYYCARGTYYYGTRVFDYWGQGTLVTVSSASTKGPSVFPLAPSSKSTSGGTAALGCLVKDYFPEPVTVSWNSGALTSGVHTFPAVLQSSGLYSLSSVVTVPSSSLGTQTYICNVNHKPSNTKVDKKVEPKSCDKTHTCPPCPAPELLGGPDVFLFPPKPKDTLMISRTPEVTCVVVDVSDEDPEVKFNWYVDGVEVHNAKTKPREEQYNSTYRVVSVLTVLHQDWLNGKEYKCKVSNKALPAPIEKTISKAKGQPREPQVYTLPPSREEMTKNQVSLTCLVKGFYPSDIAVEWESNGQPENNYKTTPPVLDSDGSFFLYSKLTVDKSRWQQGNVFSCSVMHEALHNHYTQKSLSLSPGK
# light: B1 light
# notes: HuAM4G7 IgG1 Fc variant
# B3: L235W (antibody, human IgG1, kappa)
# heavy: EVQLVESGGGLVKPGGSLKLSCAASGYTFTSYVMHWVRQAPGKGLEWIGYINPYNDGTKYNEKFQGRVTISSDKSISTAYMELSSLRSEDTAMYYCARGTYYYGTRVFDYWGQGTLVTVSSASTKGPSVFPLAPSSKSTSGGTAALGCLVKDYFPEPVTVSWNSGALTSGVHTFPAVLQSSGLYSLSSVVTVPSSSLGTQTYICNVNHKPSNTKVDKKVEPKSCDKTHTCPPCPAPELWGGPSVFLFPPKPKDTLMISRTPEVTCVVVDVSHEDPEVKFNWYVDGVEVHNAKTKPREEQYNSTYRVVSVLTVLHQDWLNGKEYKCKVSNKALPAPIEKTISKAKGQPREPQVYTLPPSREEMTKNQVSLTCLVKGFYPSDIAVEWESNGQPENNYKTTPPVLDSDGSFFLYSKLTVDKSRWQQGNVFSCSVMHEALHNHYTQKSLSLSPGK
# light: B1 light
# notes: HuAM4G7 IgG1 Fc variant
# B4: S239D/H268D/L328Y/I332E (antibody, human IgG1, kappa)
# heavy: B1 heavy with F239L, S243D, I336E
# light: B1 light
# notes: HuAM4G7 IgG1 Fc variant
# B5: S239D/H268D/L328F (antibody, human IgG1, kappa)
# heavy: B1 heavy with F239L, S243D, Y332F
# light: B1 light
# notes: HuAM4G7 IgG1 Fc variant
# B6: L328Y/I332E (antibody, human IgG1, kappa)
# heavy: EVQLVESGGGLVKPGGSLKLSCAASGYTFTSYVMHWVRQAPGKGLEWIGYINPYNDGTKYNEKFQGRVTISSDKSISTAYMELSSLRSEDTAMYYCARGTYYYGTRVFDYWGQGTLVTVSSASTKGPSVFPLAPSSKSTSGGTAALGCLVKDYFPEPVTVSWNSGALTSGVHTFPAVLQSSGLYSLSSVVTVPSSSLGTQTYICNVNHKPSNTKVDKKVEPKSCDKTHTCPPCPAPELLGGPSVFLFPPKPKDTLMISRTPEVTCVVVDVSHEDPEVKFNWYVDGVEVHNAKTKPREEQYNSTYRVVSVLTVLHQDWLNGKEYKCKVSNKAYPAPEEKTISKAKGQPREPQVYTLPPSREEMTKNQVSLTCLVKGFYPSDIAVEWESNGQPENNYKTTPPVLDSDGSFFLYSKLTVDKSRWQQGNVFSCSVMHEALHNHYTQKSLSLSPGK
# light: B1 light
# notes: HuAM4G7 IgG1 Fc variant
# B7: S239D/K326D/L328Y (antibody, human IgG1, kappa)
# heavy: B1 heavy with F239L, S243D, D272H, K330D
# light: B1 light
# notes: HuAM4G7 IgG1 Fc variant
# B8: S267D/A327E (antibody, human IgG1, kappa)
# heavy: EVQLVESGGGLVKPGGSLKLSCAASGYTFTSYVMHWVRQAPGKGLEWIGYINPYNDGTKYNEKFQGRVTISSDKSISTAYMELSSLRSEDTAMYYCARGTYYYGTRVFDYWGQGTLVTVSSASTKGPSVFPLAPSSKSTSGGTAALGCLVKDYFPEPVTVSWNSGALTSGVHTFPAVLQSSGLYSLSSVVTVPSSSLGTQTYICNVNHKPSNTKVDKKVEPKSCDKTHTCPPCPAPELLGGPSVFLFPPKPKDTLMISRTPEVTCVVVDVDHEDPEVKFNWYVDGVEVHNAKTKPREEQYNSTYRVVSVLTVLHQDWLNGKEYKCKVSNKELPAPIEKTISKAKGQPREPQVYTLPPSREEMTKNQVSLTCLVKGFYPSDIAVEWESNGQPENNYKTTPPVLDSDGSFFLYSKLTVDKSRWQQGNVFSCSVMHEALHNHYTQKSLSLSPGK
# light: B1 light
# notes: HuAM4G7 IgG1 Fc variant
# B9: S239D/H268D/L328Y (antibody, human IgG1, kappa)
# heavy: B1 heavy with F239L, S243D
# light: B1 light
# notes: HuAM4G7 IgG1 Fc variant
# B10: S239D/H268D/L328W/I332E (antibody, human IgG1, kappa)
# heavy: B1 heavy with F239L, S243D, Y332W, I336E
# light: B1 light
# notes: HuAM4G7 IgG1 Fc variant
# B11: S239D/S267E/I332E (antibody, human IgG1, kappa)
# heavy: B1 heavy with F239L, S243D, S271E, D272H, Y332L, I336E
# light: B1 light
# notes: HuAM4G7 IgG1 Fc variant
# B12: S239D/L328Y/I332E (antibody, human IgG1, kappa)
# heavy: B1 heavy with F239L, S243D, D272H, I336E
# light: B1 light
# notes: HuAM4G7 IgG1 Fc variant
# B13: S267D/A327D (antibody, human IgG1, kappa)
# heavy: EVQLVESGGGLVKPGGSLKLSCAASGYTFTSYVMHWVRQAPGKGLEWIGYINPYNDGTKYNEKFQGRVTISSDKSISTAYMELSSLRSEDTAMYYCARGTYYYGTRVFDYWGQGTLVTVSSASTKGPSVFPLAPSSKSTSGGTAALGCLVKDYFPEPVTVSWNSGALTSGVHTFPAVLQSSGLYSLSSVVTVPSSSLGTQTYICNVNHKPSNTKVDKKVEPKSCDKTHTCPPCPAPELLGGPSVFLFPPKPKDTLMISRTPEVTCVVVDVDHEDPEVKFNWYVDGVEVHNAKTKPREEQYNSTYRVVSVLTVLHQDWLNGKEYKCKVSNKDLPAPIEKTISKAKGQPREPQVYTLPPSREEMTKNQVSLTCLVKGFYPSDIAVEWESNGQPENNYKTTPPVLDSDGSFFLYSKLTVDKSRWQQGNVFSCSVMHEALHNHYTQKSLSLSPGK
# light: B1 light
# notes: HuAM4G7 IgG1 Fc variant
# B14: S267D/H268D (antibody, human IgG1, kappa)
# heavy: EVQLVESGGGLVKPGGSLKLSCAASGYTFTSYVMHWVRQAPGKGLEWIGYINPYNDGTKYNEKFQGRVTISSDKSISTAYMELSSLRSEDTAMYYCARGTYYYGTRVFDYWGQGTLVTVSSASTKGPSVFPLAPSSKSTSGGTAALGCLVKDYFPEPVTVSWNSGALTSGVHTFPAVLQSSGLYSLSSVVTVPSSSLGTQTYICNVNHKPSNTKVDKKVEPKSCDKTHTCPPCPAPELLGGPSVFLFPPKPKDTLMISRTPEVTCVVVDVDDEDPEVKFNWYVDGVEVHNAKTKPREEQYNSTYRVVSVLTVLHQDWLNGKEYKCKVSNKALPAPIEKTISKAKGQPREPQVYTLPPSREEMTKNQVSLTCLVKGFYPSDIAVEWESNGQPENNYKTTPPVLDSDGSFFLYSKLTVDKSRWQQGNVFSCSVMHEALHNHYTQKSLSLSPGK
# light: B1 light
# notes: HuAM4G7 IgG1 Fc variant
# B15: L235F/L328Y/I332E (antibody, human IgG1, kappa)
# heavy: B1 heavy with D272H, I336E
# light: B1 light
# notes: HuAM4G7 IgG1 Fc variant
# B16: S267D/H268E (antibody, human IgG1, kappa)
# heavy: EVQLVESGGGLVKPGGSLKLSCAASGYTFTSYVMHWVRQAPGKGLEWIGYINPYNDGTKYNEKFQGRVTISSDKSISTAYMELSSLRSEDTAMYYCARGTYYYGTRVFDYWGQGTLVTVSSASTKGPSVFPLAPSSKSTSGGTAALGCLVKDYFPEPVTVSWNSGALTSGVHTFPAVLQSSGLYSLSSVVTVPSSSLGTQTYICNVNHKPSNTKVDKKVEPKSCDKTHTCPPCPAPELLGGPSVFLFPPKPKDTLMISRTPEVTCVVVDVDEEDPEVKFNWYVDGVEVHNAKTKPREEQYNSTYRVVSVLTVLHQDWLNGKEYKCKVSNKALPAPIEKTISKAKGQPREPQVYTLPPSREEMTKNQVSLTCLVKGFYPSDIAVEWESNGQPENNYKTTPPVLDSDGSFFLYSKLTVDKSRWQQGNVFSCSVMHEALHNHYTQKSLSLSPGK
# light: B1 light
# notes: HuAM4G7 IgG1 Fc variant
# B17: L235F/S239D/L328Y (antibody, human IgG1, kappa)
# heavy: B1 heavy with S243D, D272H
# light: B1 light
# notes: HuAM4G7 IgG1 Fc variant
# B18: S239D/L328Y (antibody, human IgG1, kappa)
# heavy: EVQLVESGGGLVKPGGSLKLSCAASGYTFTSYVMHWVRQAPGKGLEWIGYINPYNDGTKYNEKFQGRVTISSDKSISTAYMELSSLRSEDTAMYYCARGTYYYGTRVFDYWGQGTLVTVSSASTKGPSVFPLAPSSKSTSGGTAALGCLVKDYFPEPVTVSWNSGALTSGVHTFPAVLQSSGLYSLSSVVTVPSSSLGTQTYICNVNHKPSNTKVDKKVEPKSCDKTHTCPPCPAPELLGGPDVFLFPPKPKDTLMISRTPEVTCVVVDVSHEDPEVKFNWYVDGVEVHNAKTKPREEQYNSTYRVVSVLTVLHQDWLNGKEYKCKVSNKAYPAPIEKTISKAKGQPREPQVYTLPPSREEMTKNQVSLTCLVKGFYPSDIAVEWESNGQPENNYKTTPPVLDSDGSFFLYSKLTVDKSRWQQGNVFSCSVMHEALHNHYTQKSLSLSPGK
# light: B1 light
# notes: HuAM4G7 IgG1 Fc variant
# B19: P331S (antibody, human IgG1, kappa)
# heavy: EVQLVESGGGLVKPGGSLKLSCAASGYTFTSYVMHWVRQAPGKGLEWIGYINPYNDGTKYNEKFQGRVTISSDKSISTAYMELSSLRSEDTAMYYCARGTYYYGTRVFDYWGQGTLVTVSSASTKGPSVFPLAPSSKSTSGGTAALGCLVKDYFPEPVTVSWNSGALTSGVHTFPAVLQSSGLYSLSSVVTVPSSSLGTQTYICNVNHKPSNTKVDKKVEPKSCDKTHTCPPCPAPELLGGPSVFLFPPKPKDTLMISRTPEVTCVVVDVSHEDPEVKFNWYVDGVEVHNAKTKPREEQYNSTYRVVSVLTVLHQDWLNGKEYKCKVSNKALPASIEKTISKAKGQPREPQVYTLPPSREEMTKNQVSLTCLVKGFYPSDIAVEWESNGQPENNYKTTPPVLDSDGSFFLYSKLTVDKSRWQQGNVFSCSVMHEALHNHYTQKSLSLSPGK
# light: B1 light
# notes: HuAM4G7 IgG1 Fc variant
# B20: S239D/H268D/L328F/I332E (antibody, human IgG1, kappa)
# heavy: B1 heavy with F239L, S243D, Y332F, I336E
# light: B1 light
# notes: HuAM4G7 IgG1 Fc variant
# B21: S239D/A327D/L328Y (antibody, human IgG1, kappa)
# heavy: B1 heavy with F239L, S243D, D272H, A331D
# light: B1 light
# notes: HuAM4G7 IgG1 Fc variant
# B22: S239D/L328F/I332E (antibody, human IgG1, kappa)
# heavy: B1 heavy with F239L, S243D, D272H, Y332F, I336E
# light: B1 light
# notes: HuAM4G7 IgG1 Fc variant
# B23: L328E (antibody, human IgG1, kappa)
# heavy: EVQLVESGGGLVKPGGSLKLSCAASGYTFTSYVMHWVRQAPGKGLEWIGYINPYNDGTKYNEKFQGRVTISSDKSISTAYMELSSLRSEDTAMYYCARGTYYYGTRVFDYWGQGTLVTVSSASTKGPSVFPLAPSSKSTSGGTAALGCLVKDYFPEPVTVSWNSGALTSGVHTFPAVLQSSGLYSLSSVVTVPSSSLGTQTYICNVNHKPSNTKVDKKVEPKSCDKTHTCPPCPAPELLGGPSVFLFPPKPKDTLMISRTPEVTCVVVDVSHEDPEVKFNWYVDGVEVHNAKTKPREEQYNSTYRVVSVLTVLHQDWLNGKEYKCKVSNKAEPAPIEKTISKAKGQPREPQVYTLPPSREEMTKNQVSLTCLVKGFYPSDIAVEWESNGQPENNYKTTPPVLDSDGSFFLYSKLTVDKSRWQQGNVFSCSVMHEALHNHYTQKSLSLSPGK
# light: B1 light
# notes: HuAM4G7 IgG1 Fc variant
# B24: S267A/H268D/L328Y (antibody, human IgG1, kappa)
# heavy: B1 heavy with F239L, S271A
# light: B1 light
# notes: HuAM4G7 IgG1 Fc variant
# B25: S267A/L328Y/I332E (antibody, human IgG1, kappa)
# heavy: B1 heavy with F239L, S271A, D272H, I336E
# light: B1 light
# notes: HuAM4G7 IgG1 Fc variant
# B26: S239D/H268D/L328W (antibody, human IgG1, kappa)
# heavy: B1 heavy with F239L, S243D, Y332W
# light: B1 light
# notes: HuAM4G7 IgG1 Fc variant
# B27: L235Y/S267D (antibody, human IgG1, kappa)
# heavy: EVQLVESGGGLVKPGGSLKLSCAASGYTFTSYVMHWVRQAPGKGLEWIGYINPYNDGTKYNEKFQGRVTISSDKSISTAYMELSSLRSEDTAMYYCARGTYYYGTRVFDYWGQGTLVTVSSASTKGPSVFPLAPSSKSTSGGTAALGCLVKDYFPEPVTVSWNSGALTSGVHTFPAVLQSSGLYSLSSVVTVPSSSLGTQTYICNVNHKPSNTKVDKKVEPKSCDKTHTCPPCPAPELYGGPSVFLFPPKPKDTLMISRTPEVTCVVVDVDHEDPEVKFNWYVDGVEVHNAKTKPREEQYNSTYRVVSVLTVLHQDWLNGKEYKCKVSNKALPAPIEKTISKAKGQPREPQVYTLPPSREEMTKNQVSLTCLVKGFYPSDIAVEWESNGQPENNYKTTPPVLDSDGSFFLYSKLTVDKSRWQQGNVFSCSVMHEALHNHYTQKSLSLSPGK
# light: B1 light
# notes: HuAM4G7 IgG1 Fc variant
# B28: S239D/H268E/L328Y (antibody, human IgG1, kappa)
# heavy: B1 heavy with F239L, S243D, D272E
# light: B1 light
# notes: HuAM4G7 IgG1 Fc variant
# B29: S239D/S267D (antibody, human IgG1, kappa)
# heavy: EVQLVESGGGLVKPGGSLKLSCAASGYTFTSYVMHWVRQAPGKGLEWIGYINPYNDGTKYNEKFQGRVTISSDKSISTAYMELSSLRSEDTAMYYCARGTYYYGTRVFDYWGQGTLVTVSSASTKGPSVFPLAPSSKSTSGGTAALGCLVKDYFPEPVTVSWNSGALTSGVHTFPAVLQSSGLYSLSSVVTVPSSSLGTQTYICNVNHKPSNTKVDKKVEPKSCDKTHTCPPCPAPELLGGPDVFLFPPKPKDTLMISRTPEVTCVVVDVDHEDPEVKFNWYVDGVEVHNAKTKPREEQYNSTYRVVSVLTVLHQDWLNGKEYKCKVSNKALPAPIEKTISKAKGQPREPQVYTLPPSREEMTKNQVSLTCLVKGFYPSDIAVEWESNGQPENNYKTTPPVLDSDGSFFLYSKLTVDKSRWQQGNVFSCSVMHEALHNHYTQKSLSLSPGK
# light: B1 light
# notes: HuAM4G7 IgG1 Fc variant
# B30: S239D/S267A/L328Y (antibody, human IgG1, kappa)
# heavy: B1 heavy with F239L, S243D, S271A, D272H
# light: B1 light
# notes: HuAM4G7 IgG1 Fc variant
# Molecular target: T1, human FcγRIIb receptor protein (R&D …)
# Assay: SPR (Biacore)
# Protocol: Variants were screened for receptor affinity using Biacore™ technology, also referred to as Biacore herein, a surface plasmon resonance (SPR) based technology for studying biomolecular interactions in real time. SPR measurements were performed using a Biacore 3000 instrument (Biacore, Piscataway, N.J.). A protein A/G (Pierce Biotechnology) CM5 biosensor chip (Biacore) was generated using a standard primary amine coupling protocol. All measurements were performed using HBS-EP buffer (10 mM HEPES pH 7.4, 0.15 M NaCl, 3 mM EDTA, 0.005% vol/vol surfactant P20, Biacore). Antibodies at 20 nM or 50 nM in HBS-EP buffer were immobilized on the protein A/G surface and FcγRs were injected. After each cycle, the surface was regenerated by injecting glycine buffer (10 mM, pH 1.5). Data were processed by zeroing time and response before the injection of FcγR and by subtracting appropriate nonspecific signals (response of reference channel and injection of running buffer). Kinetic analyses were performed by global fitting of binding data with a 1:1 Langmuir binding model using BIAevaluation software (Biacore).
Fold FcγRIIb [fold],binding result,Binder
3.97,,B1
14.4,,B2
,no binding,B3
54.1,,B4
8.79,,B5
2.08,,B6
13,,B7
12.1,,B8
24.4,,B9
27.8,,B10
124,,B11
7.41,,B12
6.89,,B13
14.2,,B14
3.31,,B15
17.8,,B16
6.82,,B17
5.56,,B18
0.0372,,B19
53.2,,B20
11.9,,B21
8.34,,B22
,no binding,B23
10.7,,B24
13.5,,B25
51.1,,B26
15.9,,B27
21.7,,B28
22.3,,B29
19.8,,B30
